Assay results from patent US20060067886A1, “Gastrin receptor-avid peptide conjugates” (priority 1997, published 2006).

Test: Biodistribution of radiometal-DOTA-BBN conjugates in CF1 normal mice
Conditions: 1 hour post-injection; for tissue uptake dose at 1 h / dose excreted at 1 h / tissue uptake at 1 h: CF-1, mouse, in vivo, iv, total radioactivity; for tissue uptake dose at 1 h / dose excreted at 1 h: Avg % ID; for dose excreted at 1 h: Urine; for tissue uptake at 1 h: Avg % ID/gm

Row | Structure (SMILES) | tissue uptake dose at 1 h (Blood) [%ID] | tissue uptake dose at 1 h (Kidney) [%ID] | tissue uptake dose at 1 h (Liver) [%ID] | tissue uptake dose at 1 h (Pancreas) [%ID] | dose excreted at 1 h [%] | tissue uptake at 1 h (Kidney) [%ID/g] | tissue uptake at 1 h (Liver) [%ID/g] | tissue uptake at 1 h (Pancreas) [%ID/g] | Avg % ID, Carcass [% ID] | Avg % ID, L. Intestine [% ID] | Avg % ID, S. Intestine [% ID] | Avg % ID/gm, Blood [% ID/gm] | Avg % ID/gm, Muscle [% ID/gm] | Avg % ID/gm, S. Intestine [% ID/gm] | Avg % ID/gm, Stomach [% ID/gm] | Avg % ID, Heart [% ID] | Avg % ID, Lung [% ID] | Avg % ID, Muscle [% ID] | Avg % ID, Spleen [% ID] | Avg % ID/gm, Heart [% ID/gm] | other results
1 | CSCC[C@H](NC(=O)[C@H](CC(C)C)NC(=O)[C@H](Cc1cnc[nH]1)NC(=O)CNC(=O)[C@@H](NC(=O)[C@H](C)NC(=O)[C@H](Cc1c[nH]c2ccccc12)NC(=O)[C@H](CCC(N)=O)NC(=O)CN1CCN(CC(=O)O)CCN(CC(=O)O)CCN(CC(=O)O)CC1)C(C)C)C(N)=O [111In-DOTA-0-BBN[7-14]NH2, metal not drawn] | 0.22 ± 0.07 | 0.57 ± 0.02 | 0.17 ± 0.02 | 0.07 ± 0.01 | 96.95 ± 0.37 | 1.24 ± 0.14 | 0.09 ± 0.01 | 0.2 ± 0.04 |  |  |  |  |  |  |  |  |  |  |  |  | tissue uptake dose at 1 h (Heart): 0.01 %ID; tissue uptake dose at 1 h (Lung): 0.03 %ID; tissue uptake dose at 1 h (Muscle): 0.01 %ID; tissue uptake dose at 1 h (Spleen): 0.01 %ID; tissue uptake at 1 h (Heart): 0.05 ± 0.02 %ID/g; tissue uptake at 1 h (Lung): 0.13 ± 0.03 %ID/g; tissue uptake at 1 h (Spleen): 0.08 ± 0.02 %ID/g
2 | CSCC[C@H](NC(=O)[C@H](CC(C)C)NC(=O)[C@H](Cc1cnc[nH]1)NC(=O)CNC(=O)[C@@H](NC(=O)[C@H](C)NC(=O)[C@H](Cc1c[nH]c2ccccc12)NC(=O)[C@H](CCC(N)=O)NC(=O)CN1CCN(CC(=O)O)CCN(CC(=O)O)CCN(CC(=O)O)CC1)C(C)C)C(N)=O [111In-DOTA-0-BBN[7-14]NH2] [metal not drawn] |  |  |  |  |  |  |  |  | 1.78 ± 0.37 | 0.10 ± 0.02 | 0.25 ± 0.04 | 0.10 ± 0.03 | 0.03 ± 0.02 | 0.44 ± 0.64 | 0.06 ± 0.03 |  |  |  |  |  | 
3 | CSCC[C@H](NC(=O)[C@H](CC(C)C)NC(=O)[C@H](Cc1c[nH]cn1)NC(=O)CNC(=O)[C@@H](NC(=O)[C@H](C)NC(=O)[C@H](Cc1c[nH]c2ccccc12)NC(=O)[C@H](CCC(N)=O)NC(=O)CCCCNC(=O)CN1CCN(CC(=O)O)CCN(CC(=O)O)CCN(CC(=O)O)CC1)C(C)C)C(N)=O [111In-DOTA-5-Ava-BBN[7-14]NH2, metal not drawn] | 0.45 ± 0.14 | 0.75 ± 0.14 |  | 5.57 ± 0.99 | 81.3 ± 1.32 | 1.84 ± 0.44 |  | 15.8 ± 2.54 |  |  |  |  |  |  |  |  |  |  |  |  | tissue uptake dose at 1 h (L. Intestine): 2.74 ± 0.8 %ID; tissue uptake at 1 h (Blood): 0.2 ± 0.07 %ID/g; tissue uptake at 1 h (L. Intestine): 3.07 ± 0.86 %ID/g
4 | CSCC[C@H](NC(=O)[C@H](CC(C)C)NC(=O)[C@H](Cc1c[nH]cn1)NC(=O)CNC(=O)[C@@H](NC(=O)[C@H](C)NC(=O)[C@H](Cc1c[nH]c2ccccc12)NC(=O)[C@H](CCC(N)=O)NC(=O)CCCCNC(=O)CN1CCN(CC(=O)O)CCN(CC(=O)O)CCN(CC(=O)O)CC1)C(C)C)C(N)=O [111In-DOTA-5-Ava-BBN[7-14]NH2] [metal not drawn] |  |  |  |  |  |  |  |  | 3.15 ± 0.70 |  | 0.11 ± 0.04 |  | 0.05 ± 0.02 | 3.49 ± 0.87 | 0.71 ± 0.24 | 0.02 ± 0.01 | 0.04 ± 0.01 | 0.01 ± 0.01 | 0.11 ± 0.04 | 0.10 ± 0.04 | Avg % ID, Liver: 0.26 ± 0.03 % ID; Avg % ID, Stomach: 0.37 ± 0.16 % ID; Avg % ID/gm, Liver: 0.16 ± 0.02 % ID/gm; Avg % ID/gm, Spleen: 0.87 ± 0.28 % ID/gm
5 | CSCC[C@H](NC(=O)[C@H](CC(C)C)NC(=O)[C@H](Cc1c[nH]cn1)NC(=O)CNC(=O)[C@@H](NC(=O)[C@H](C)NC(=O)[C@H](Cc1c[nH]c2ccccc12)NC(=O)[C@H](CCC(N)=O)NC(=O)CCCCCCCCCCNC(=O)CN1CCN(CC(=O)O)CCN(CC(=O)O)CCN(CC(=O)O)CC1)C(C)C)C(N)=O [111In-DOTA-11-Aun-BBN[7-14]NH2, metal not drawn] | 0.79 ± 0.2 | 1.07 ± 0.17 | 2.44 ± 0.5 | 11.6 ± 1.14 | 53.3 ± 0.9 |  | 1.22 ± 0.25 | 26 ± 3.46 |  |  |  |  |  |  |  |  |  |  |  |  | tissue uptake dose at 1 h (Carcass): 7.35 ± 1.57 %ID; tissue uptake dose at 1 h (L. Intestine): 5.54 ± 2.42 %ID; tissue uptake dose at 1 h (S. Intestine): 17.8 ± 1.4 %ID; tissue uptake dose at 1 h (Spleen): 0.19 ± 0.04 %ID; tissue uptake dose at 1 h (Stomach): 0.53 ± 0.11 %ID; tissue uptake at 1 h (L. Intestine): 4.34 ± 1.34 %ID/g; tissue uptake at 1 h (S. Intestine): 11.1 ± 2.07 %ID/g; tissue uptake at 1 h (Spleen): 1.15 ± 0.38 %ID/g; tissue uptake at 1 h (Stomach): 1.05 ± 0.25 %ID/g
6 | CSCC[C@H](NC(=O)[C@H](CC(C)C)NC(=O)[C@H](Cc1c[nH]cn1)NC(=O)CNC(=O)[C@@H](NC(=O)[C@H](C)NC(=O)[C@H](Cc1c[nH]c2ccccc12)NC(=O)[C@H](CCC(N)=O)NC(=O)CCCCCCCCCCNC(=O)CN1CCN(CC(=O)O)CCN(CC(=O)O)CCN(CC(=O)O)CC1)C(C)C)C(N)=O [111In-DOTA-11-Aun-BBN[7-14]NH2] [metal not drawn] |  |  |  |  |  |  |  |  |  |  |  | 0.34 ± 0.08 | 0.09 ± 0.03 |  |  | 0.02 ± 0.01 | 0.08 ± 0.01 | 0.02 ± 0.01 |  | 0.13 ± 0.04 | Avg % ID/gm, Kidney: 2.06 ± 0.31 % ID/gm; Avg % ID/gm, Lung: 0.26 ± 0.05 % ID/gm
7 | CSCC[C@H](NC(=O)[C@H](CC(C)C)NC(=O)[C@H](Cc1cnc[nH]1)NC(=O)CNC(=O)[C@@H](NC(=O)[C@H](C)NC(=O)[C@H](Cc1c[nH]c2ccccc12)NC(=O)[C@H](CCC(N)=O)NC(=O)CCNC(=O)CN1CCN(CC(=O)O)CCN(CC(=O)O)CCN(CC(=O)O)CC1)C(C)C)C(N)=O [111In-DOTA-β-Ala-BBN[7-14]NH2, metal not drawn] | 0.23 ± 0.1 | 0.62 ± 0.1 | 0.17 ± 0.03 |  | 92.41 ± 0.9 | 1.4 ± 0.27 | 0.11 ± 0.02 |  |  |  |  |  |  |  |  |  |  |  |  |  | tissue uptake dose at 1 h (Carcass): 2.23 ± 0.36 %ID; tissue uptake dose at 1 h (Lung): 0.03 ± 0.02 %ID; tissue uptake dose at 1 h (Stomach): 0.13 ± 0.02 %ID; tissue uptake at 1 h (Blood): 0.11 ± 0.06 %ID/g; tissue uptake at 1 h (Stomach): 0.3 ± 0.07 %ID/g
8 | CSCC[C@H](NC(=O)[C@H](CC(C)C)NC(=O)[C@H](Cc1cnc[nH]1)NC(=O)CNC(=O)[C@@H](NC(=O)[C@H](C)NC(=O)[C@H](Cc1c[nH]c2ccccc12)NC(=O)[C@H](CCC(N)=O)NC(=O)CCNC(=O)CN1CCN(CC(=O)O)CCN(CC(=O)O)CCN(CC(=O)O)CC1)C(C)C)C(N)=O [111In-DOTA-β-Ala-BBN[7-14]NH2] [metal not drawn] |  |  |  |  |  |  |  |  |  | 0.90 ± 0.57 | 1.57 ± 0.65 |  | 0.03 ± 0.02 | 1.01 ± 0.37 |  | 0.01 ± 0.01 |  | 0.01 ± 0.01 | 0.05 ± 0.00 | 0.06 ± 0.04 | Avg % ID, Pancreas: 1.84 ± 0.35 % ID; Avg % ID/gm, L. Intestine: 1.10 ± 0.78 % ID/gm; Avg % ID/gm, Pancreas: 4.92 ± 0.37 % ID/gm; Avg % ID/gm, Spleen: 0.37 ± 0.06 % ID/gm
9 | CSCC[C@H](NC(=O)[C@H](CC(C)C)NC(=O)[C@H](Cc1cnc[nH]1)NC(=O)CNC(=O)[C@@H](NC(=O)[C@H](C)NC(=O)[C@H](Cc1c[nH]c2ccccc12)NC(=O)[C@H](CCC(N)=O)NC(=O)CN1CCN(CC(=O)O)CCN(CC(=O)O)CCN(CC(=O)O)CC1)C(C)C)C(N)=O [149Pm-DOTA-0-BBN[7-14]NH2] |  |  |  |  |  |  |  |  | 1.98 ± 2.27 | 0.01 ± 0.02 | 0.38 ± 0.25 | 0.00 ± 0.00 | 0.00 ± 0.00 | 0.27 ± 0.17 | 0.04 ± 0.08 | 0.00 ± 0.00 | 0.00 ± 0.00 | 0.00 ± 0.00 | 0.00 ± 0.00 | 0.00 ± 0.00 | Avg % ID, Blood: 0.00 ± 0.00 % ID; Avg % ID, Kidney: 0.34 ± 0.28 % ID; Avg % ID, Liver: 0.16 ± 0.15 % ID; Avg % ID, Pancreas: 0.07 ± 0.01 % ID; Avg % ID, Stomach: 0.02 ± 0.05 % ID; Avg % ID/gm, Kidney: 1.04 ± 0.90 % ID/gm; Avg % ID/gm, L. Intestine: 0.01 ± 0.03 % ID/gm; Avg % ID/gm, Liver: 0.12 ± 0.10 % ID/gm; Avg % ID/gm, Lung: 0.00 ± 0.00 % ID/gm; Avg % ID/gm, Pancreas: 0.00 ± 0.00 % ID/gm; Avg % ID/gm, Spleen: 0.00 ± 0.00 % ID/gm
